In article PMC11366018 (Nature Communications, 2024):

Key:
SARS-CoV-2 RBD (WT) [1] = molecular target: T1, SARS-CoV-2 RBD (WT) (SARS-CoV-2 Wuhan-Hu-1 (wildtype), UniProt P0DTC2); assay: BLI; conditions: both partners purified
Pangolin CoV GD1 RBD = Pangolin CoV GD1 RBD (Pangolin coronavirus Guangdong, isolate …, strain); assay: BLI; conditions: both partners purified
Bat CoV RaTG13 RBD [2] = molecular target: Bat CoV RaTG13 RBD (Bat coronavirus RaTG13, UniProt A0ABF7PLN6, strain); assay: BLI; conditions: both partners purified
SARS-CoV-1 RBD = SARS-CoV-1 RBD (SARS-CoV-1, strain , UniProt P59594); assay: BLI; conditions: both partners purified
SARS-CoV-2 RBD (WT) [3] = molecular target: T1, SARS-CoV-2 RBD (WT); assay: BLI; conditions: both partners purified; remark: listed apart in the source
Bat CoV RaTG13 RBD [4] = molecular target: Bat CoV RaTG13 RBD (Bat coronavirus RaTG13, UniProt A0ABF7PLN6); assay: BLI; conditions: both partners purified
[5] = molecular target: T2, wildtype SARS-CoV-2 spike receptor binding domain (RBD), residues 319-541 (SARS-CoV-2, wildtype (ancestral), UniProt P0DTC2); assay: cell-based or functional assay
[6] = molecular target: T2, wildtype SARS-CoV-2 spike receptor …; assay: BLI; conditions: both partners purified

B1: R1-26 (antibody, V domains shown)
VH: EVQLVESGGGLVQPGGSLRLSCAASGFTFSSYWMSWVRQAPGKGLEWVANIKQDGSEKYYVDSVKGRFTISRDNAKNSLYLQMNSLRAEDTAVYYCARGQLGPWVGVDYWGQGTLVTVSS
VL: NFMLTQPHSVSESPGKTVTISCTGSSGSIASNYVQWYQQRPGSAPTTVIYEDNQRPSGVPDRFSGSIDSSSNSASLTISGLKTEDEADYYCQSYDSSNWVFGGGTQLTVL
Kd (SARS-CoV-2 RBD (WT) [1]): 3.84 nM
koff (SARS-CoV-2 RBD (WT) [1]): 0.00177 s⁻¹
kon (SARS-CoV-2 RBD (WT) [1]): 460000 M⁻¹ s⁻¹

B2: H18 (antibody, V domains shown)
VH: QVQLQESGPGLVKPSETLSLTCTVSGGSVSSGGYFWSWIRQPPGKGLEWIGCIYYSGSTNYNPSLKSRVTISVDTSKDQFSLKLSSVTAADTAVYYCARQLWLRGRFDYWGQGTLVTVSS
VL: NFMLTQPHSVSESPGKTVTISCTRSSGSIASNYVQWYQQRPGSSPTTVIYEDNQRPSGVPDRFSGSIDSSSNSASLTISGLKTEDEADYYCQSYDSSNVVFGGGTKLTVL
notes: human IgG1
Kd (Pangolin CoV GD1 RBD): 134 nM
koff (Pangolin CoV GD1 RBD): 0.00624 s⁻¹
kon (Pangolin CoV GD1 RBD): 46500 M⁻¹ s⁻¹
Kd (Bat CoV RaTG13 RBD [2]): 332 nM
koff (Bat CoV RaTG13 RBD [2]): 0.00612 s⁻¹
kon (Bat CoV RaTG13 RBD [2]): 18400 M⁻¹ s⁻¹
Kd (SARS-CoV-1 RBD): 231 nM
koff (SARS-CoV-1 RBD): 0.00283 s⁻¹
kon (SARS-CoV-1 RBD): 12300 M⁻¹ s⁻¹

B3: H5 (antibody, V domains shown)
VH: QVQLVESGGGLVKPGGSLRLSCAASGFTFSDYYMSWIRQAPGKGLEWVSYISSSGSTIYYADSVKGRFTISRDNAKNSLYLQMNSLRAEDTAVYYCARAKWLRGHFDYWGQGTLVTVSS
VL: NFMLTQPHSVSESPGKTVTISCTRSSGSIASNYVQWYQQRPGSSPTTVIYEDNQRPSGVPDRFSGSIDSSSNSASLTISGLKTEDEADYYCQSYDSSNVVFGGGTKLTVL
notes: human IgG1
Kd (SARS-CoV-2 RBD (WT) [3]): 1500 nM
koff (SARS-CoV-2 RBD (WT) [3]): 0.195 s⁻¹
kon (SARS-CoV-2 RBD (WT) [3]): 129000 M⁻¹ s⁻¹
binding result (Bat CoV RaTG13 RBD [2]): no binding (tested: 200 nM (highest of the series))

B4: H4 (antibody, V domains shown)
VH: EVQLVESGGGLVQPGGSLRLSCAASGFTFSSYWMSWVRQAPGKGLEWVANIKQDGSEKYYVDSVKGRFTISRDNAKNSLYLQMNSLRAEDTAVYYCASQLWLRGAFDIWGQGTMVTVSS
VL: NFMLTQPHSVSESPGKTVTISCTRSSGSIASNYVQWYQQRPGSSPTTVIYEDNQRPSGVPDRFSGSIDSSSNSASLTISGLKTEDEADYYCQSYDSSNVVFGGGTKLTVL
Kd (SARS-CoV-2 RBD (WT) [3]): 29.9 nM
koff (SARS-CoV-2 RBD (WT) [3]): 0.0105 s⁻¹
kon (SARS-CoV-2 RBD (WT) [3]): 351000 M⁻¹ s⁻¹
Kd (Pangolin CoV GD1 RBD): 355 nM
koff (Pangolin CoV GD1 RBD): 0.0102 s⁻¹
kon (Pangolin CoV GD1 RBD): 28800 M⁻¹ s⁻¹
Kd (Bat CoV RaTG13 RBD [2]): 503 nM
koff (Bat CoV RaTG13 RBD [2]): 0.0134 s⁻¹
kon (Bat CoV RaTG13 RBD [2]): 26700 M⁻¹ s⁻¹

B5: H18 (recombinant mAb, IgG) (antibody, V domains shown)
VH: QVQLQESGPGLVKPSETLSLTCTVSGGSVSSGGYFWSWIRQPPGKGLEWIGCIYYSGSTNYNPSLKSRVTISVDTSKDQFSLKLSSVTAADTAVYYCARQLWLRGRFDYWGQGTLVTVSS
VL: NFMLTQPHSVSESPGKTVTISCTRSSGSIASNYVQWYQQRPGSSPTTVIYEDNQRPSGVPDRFSGSIDSSSNSASLTISGLKTEDEADYYCQSYDSSNVVFGGGTKLTVL
binding result (Bat CoV RaTG13 RBD [4]): binds

B6: R1-26 (IgG) (antibody, V domains shown)
VH: EVQLVESGGGLVQPGGSLRLSCAASGFTFSSYWMSWVRQAPGKGLEWVANIKQDGSEKYYVDSVKGRFTISRDNAKNSLYLQMNSLRAEDTAVYYCARGQLGPWVGVDYWGQGTLVTVSS
VL: NFMLTQPHSVSESPGKTVTISCTGSSGSIASNYVQWYQQRPGSAPTTVIYEDNQRPSGVPDRFSGSIDSSSNSASLTISGLKTEDEADYYCQSYDSSNWVFGGGTQLTVL
pseudovirus neutralization IC50 (pseudovirus displaying WT SARS-CoV-2 S-protein) [5]: 2.7 nM
Kd [6]: 3.8 nM

B7: H16 (antibody, V domains shown)
VH: QLQLQESGPGLVKPSETLSLTCTVSGGSISSSSYYWGWIRQPPGKGLEWIGSIYYSGSTYYNPSLKSRVTISVDTSKNQFSLKLSSVTAADTAVYYCARREWLRGPFDYWGQGTLVTVSS
VL: NFMLTQPHSVSESPGKTVTISCTRSSGSIASNYVQWYQQRPGSSPTTVIYEDNQRPSGVPDRFSGSIDSSSNSASLTISGLKTEDEADYYCQSYDSSNVVFGGGTKLTVL
notes: human IgG1
Kd (SARS-CoV-2 RBD (WT) [3]): 97.9 nM
koff (SARS-CoV-2 RBD (WT) [3]): 0.0498 s⁻¹
kon (SARS-CoV-2 RBD (WT) [3]): 509000 M⁻¹ s⁻¹
Kd (Pangolin CoV GD1 RBD): 737 nM
koff (Pangolin CoV GD1 RBD): 0.0254 s⁻¹
kon (Pangolin CoV GD1 RBD): 34400 M⁻¹ s⁻¹
binding result (Bat CoV RaTG13 RBD [2]): no binding (tested: 200 nM (highest of the series))

B8: H14 (antibody, V domains shown)
VH: QVQLQESGPGLVKPSQTLSLTCTVSGGSISSGGYYWSWIRQHPGKGLEWIGYIYYSGSTYYNPSLKSLVTISVDTSKNQFSLKLSSVTAADTAVYYCARKGWLRGAFDIWGQGTMVTVSS
VL: NFMLTQPHSVSESPGKTVTISCTRSSGSIASNYVQWYQQRPGSSPTTVIYEDNQRPSGVPDRFSGSIDSSSNSASLTISGLKTEDEADYYCQSYDSSNVVFGGGTKLTVL
notes: human IgG1
Kd (SARS-CoV-2 RBD (WT) [3]): 34 nM
koff (SARS-CoV-2 RBD (WT) [3]): 0.0182 s⁻¹
kon (SARS-CoV-2 RBD (WT) [3]): 536000 M⁻¹ s⁻¹
Kd (Pangolin CoV GD1 RBD): 451 nM
koff (Pangolin CoV GD1 RBD): 0.0205 s⁻¹
kon (Pangolin CoV GD1 RBD): 45500 M⁻¹ s⁻¹
Kd (Bat CoV RaTG13 RBD [2]): 302 nM
koff (Bat CoV RaTG13 RBD [2]): 0.0151 s⁻¹
kon (Bat CoV RaTG13 RBD [2]): 49900 M⁻¹ s⁻¹
